Source: the supplement of paper PMC10567573

B1: BTBD1 (parent)
chain: FVLGKGRGAAAAGGPQRIPAHRFV

Variants of: B1
Assay: protein stability index of a GFP-peptide fusion (GPS, HEK-293T) (PSI 1-6); higher = more stable
Settings: c terminus: a fixed tail appended
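Also: lentivirally expressed fusions sorted by FACS into six bins by GFP to DsRed ratio, PSI derived from sequencing read proportions per bin multiplied by bin number.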

Protein stability index: each site, then its substitutions
F23: R 1.25 | C 1.08 | N 1.9 | Y 1.71 | M 2.58 | H 1.45 | T 2.2 | E 2.04 | K 3.99 | V 1.93 | S 2.93 | P 2.43 | Q 2.19
R22: L 2.3 | S 1.36 | M 4.76 | G 1.08 | T 5.22 | K 1.82 | D 2.35 | H 1.72 | V 2.14 | N 2.53 | Q 1.84
A20: Q 1.73 | C 1.73 | T 1.74 | E 2.49 | N 1.49 | F 2.32 | R 1.35 | S 1.53 | M 2.09 | L 1.76 | H 2.4 | G 1.46
H21: S 1.56 | N 1.88 | G 1.77 | D 2.22 | R 2.32 | F 4.04 | V 2.72 | Q 1.91 | A 2.14 | T 2.72 | P 1.97 | L 2.61 | M 3.14
P19: T 1.88 | V 1.26 | N 2.06 | S 1.31 | D 1.53 | A 1.34 | H 1.27 | E 1.78 | I 2.16 | Q 2.17 | R 1.81 | L 1.5
R17: V 2.52 | M 1.56 | S 1.86 | W 1.41 | Y 1.49 | N 1.64 | Q 1.92
I18: W 1.91 | N 2.12 | C 2.27 | P 2.12 | Q 2.03 | D 2.16 | R 1.46 | F 1.93 | Y 1.74 | M 2.87
V24: T 2.84 | K 2.12 | P 2.47 | Q 1.7 | D 2.27 | S 2.21 | G 1.56 | R 1.8 | L 1.73 | M 3
